Results as given in patent publication US20230374151A1 (GlaxoSmithKline, published 2023).

Key:
[1] = biological target: T1, TnMUC1 (aberrantly glycosylated MUC1) on tumour cells (human, UniProt P15941 24-1255, truncated Tn / sialyl-Tn O-glycans on Ser/Thr (aberrant glycosylation)); experiment: flow cytometry on MDA-MB-468 cells, scFv pre-complexed with anti-His-PE; experiment 75-13
T1 construct: whole, on cells; also called Tn/STnMUC-1; TnMUC1-positive MDA-MB-468 cells
Procedure: (§1) Cells were detached and cells were re-suspended in appropriate cell culture media or transferred to Falcon tube. A sample of each cell suspension was then diluted 1:5 with DPBS (to give a final volume of 0.5 mL) and the number of viable cells per mL (based on trypan blue exclusion) were determined for each cell suspension using the Vi-CELL XR Cell Viability Analyser (Default cell type setting used). Cell suspensions were then diluted in appropriate cell culture media and seeded into fresh cell culture flasks at a density of 6.25×10⁴ viable cells per cm². Cells were incubated in a humidified incubator at 37° C. with 5% CO₂ for 48 hours (or until required). On the day of assay, cells were detached from flasks, resuspended in appropriate cell culture media (if appropriate) and the number of viable cells per mL counted as described previously. Cell suspensions were then centrifuged at 500×g for 5 minutes before resuspending cell pellets in FACS Buffer at a density of 4×10⁶ viable cells per mL.
(§2) scFv proteins were diluted to 62.5 nM in DPBS and dispensed into row A of a 96-well V-bottom plate before performing a 1:4 serial dilution in FACS Buffer down the plate to give 25 μL (final volume) per well (FACS Buffer in row H only). […]

[2] = biological target: T1, TnMUC1 (aberrantly glycosylated MUC1) …; experiment: flow cytometry on MDA-MB-468 cells, scFv pre-complexed with anti-His-PE; mean
Procedure: as §1, §2

[3] = biological target: T1, TnMUC1 (aberrantly glycosylated MUC1) …; experiment: flow cytometry on MDA-MB-468 cells, scFv pre-complexed with anti-His-PE; experiment 75-14
Procedure: as §1, §2

[4] = biological target: T1, TnMUC1 (aberrantly glycosylated MUC1) …; experiment: flow cytometry on TnMUC1-positive Jurkat cells, His-tagged scFv pre-complexed with anti-His-PE, n=1 representative

T1 sequence (P15941 24-1255): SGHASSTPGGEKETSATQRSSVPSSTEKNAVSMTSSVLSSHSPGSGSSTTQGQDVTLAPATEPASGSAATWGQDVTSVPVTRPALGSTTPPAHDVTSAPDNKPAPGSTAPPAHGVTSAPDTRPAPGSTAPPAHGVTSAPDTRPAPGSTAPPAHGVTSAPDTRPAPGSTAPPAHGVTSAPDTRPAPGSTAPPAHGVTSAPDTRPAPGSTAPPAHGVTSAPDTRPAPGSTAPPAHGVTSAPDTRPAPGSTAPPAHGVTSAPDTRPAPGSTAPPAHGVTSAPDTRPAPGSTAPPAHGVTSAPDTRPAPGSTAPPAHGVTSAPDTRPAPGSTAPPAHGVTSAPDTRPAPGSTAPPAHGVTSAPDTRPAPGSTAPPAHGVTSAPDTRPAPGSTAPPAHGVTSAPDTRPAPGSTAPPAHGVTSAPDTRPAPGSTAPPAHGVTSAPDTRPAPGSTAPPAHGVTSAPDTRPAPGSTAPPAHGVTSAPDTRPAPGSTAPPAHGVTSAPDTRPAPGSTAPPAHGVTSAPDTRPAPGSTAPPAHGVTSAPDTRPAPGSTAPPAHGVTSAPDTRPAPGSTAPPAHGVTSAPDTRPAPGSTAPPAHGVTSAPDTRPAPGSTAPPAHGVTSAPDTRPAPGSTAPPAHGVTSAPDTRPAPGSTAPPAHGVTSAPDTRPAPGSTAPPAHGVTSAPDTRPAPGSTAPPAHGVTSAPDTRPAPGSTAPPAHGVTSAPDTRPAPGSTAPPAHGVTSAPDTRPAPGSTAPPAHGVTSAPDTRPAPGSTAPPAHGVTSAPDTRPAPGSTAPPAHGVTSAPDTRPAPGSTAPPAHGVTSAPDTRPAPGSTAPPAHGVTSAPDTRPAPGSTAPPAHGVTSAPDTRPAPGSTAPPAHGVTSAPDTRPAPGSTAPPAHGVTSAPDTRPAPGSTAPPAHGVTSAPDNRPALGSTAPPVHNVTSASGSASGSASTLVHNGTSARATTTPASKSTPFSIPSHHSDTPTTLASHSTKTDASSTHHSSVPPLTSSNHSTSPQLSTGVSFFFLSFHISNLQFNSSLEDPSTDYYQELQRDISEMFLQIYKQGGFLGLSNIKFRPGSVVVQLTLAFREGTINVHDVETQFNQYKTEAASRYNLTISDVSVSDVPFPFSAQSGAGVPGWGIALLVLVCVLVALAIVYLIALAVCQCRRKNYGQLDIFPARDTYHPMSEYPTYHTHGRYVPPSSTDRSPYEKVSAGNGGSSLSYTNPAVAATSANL

B1: humanised anti-TnMUC1 scFv protein 9P1 (88A), VL-VH humanised control (scFv)
scFv: DIVMTQSPDSLAVSLGERATINCKSSQSLLNSGDQKNYLTWYQQKPGQPPKLLIYWASTRESGVPDRFSGSGSGTDFTLTISSLQAEDVAVYYCQNDYSYPLTFGQGTKVEIKGGGGSGGGGSGGGGSGGGGSQVQLVQSGAEVKKTGSSVKVSCKASGYTFTDHAIHWVRQAPGQALEWMGHFSPGNTDIKYNDKFKGRVTLTVDRSMSTAYMELSSLRSEDTAMYYCKTSTFFFDYWGQGTMVTVSSAAAHHHHHH
notes: Control scFv designed from a humanised antibody of WO2015/159076 (10D2 is said to come from Ab2, so 10D1 by implication from Ab1); Neat supernatant of construct 10D1 in the Octet assay; purified protein 9P1 in Biacore and flow cytometry; also called 10D1
EC50 [1]: 3 nM | pEC50 [1]: 8.52 | EC50 [2]: 3.09 nM | pEC50 [2]: 8.51 | EC50 [3]: 3.18 nM | pEC50 [3]: 8.5 | EC50 (read off the curve) [4]: ~6 nM
